This is an account of results in patent publication US20260200991A1.

For the experiment, the target named is Flag tagged HIV-1 Env with the 7aa Erbin PDZ domain binding sequence fused to its C-terminus (HIV-1). Kind of experiment: cell-based or functional assay.

On to Ebola VP40-Erbin PDZ fusion protein, for which the normalized VLP ELISA (Env display on VLPs) (fold decrease) was 2.
